Experimental findings from doi:10.1101/2024.08.29.607757 (bioRxiv, 2024) are described below.

B2: NtcA from Synechococcus elongatus (strain PCC7942) with N-terminal His6 tag (natural protein)
chain: MLANENSLLTMFRELGSGKLPLQIEQFERGKTIFFPGDPAERVYLLVKGAVKLSRVYESGEEITVALLRENSVFGVLSLLTGQRSDRFYHAVAFTPVQLFSVPIEFMQKALIERPELANVMLQGLSSRILQTEMMIETLAHRDMGSRLVSFLLILCRDFGIPSPDGITIDLKLSHQAIAEAIGSTRVTVTRLLGDLRESKLIAIHKKRITVFNPVALSQQFS

The target in data set [1] is T1, NtcA (Synechococcus elongatus PCC7942, UniProt P29283 1-222).
T1 sequence: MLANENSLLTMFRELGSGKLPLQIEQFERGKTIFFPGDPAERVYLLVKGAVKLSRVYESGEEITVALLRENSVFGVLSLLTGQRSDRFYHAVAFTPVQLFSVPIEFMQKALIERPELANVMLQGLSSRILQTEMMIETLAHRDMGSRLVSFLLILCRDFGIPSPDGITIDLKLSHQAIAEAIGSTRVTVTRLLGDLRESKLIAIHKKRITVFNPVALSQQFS
The data set is described as follows: X-ray crystallography.

Data set [2] concerns the molecule itself. The data set is described as follows: crystal structure.
In data set [3] the target is B2. As to the kind of experiment: crystal structure.

B1: nicked symmetric glnA half-site NtcA box (NtcA-DNA crystal) (dsDNA)
DNA 1: CATTTTTATGTATC
DNA 2: AGCTGATACATAAAAAT
Consider B1, for which, in data set [1], the binding result is given as “binds”.
For B2, the binding result in data set [2] is on record as “binds”.

B3: PipX from Synechococcus elongatus (strain PCC7942) with N-terminal His6 tag (natural protein)
chain: MASENYLNHPTFGLLYQICSFGDSKELFATLYAQRLFFLVAFDARGTRFEPIGRNEARMLVDNRLRQLRRDASLQEYNQLQQVFKQTFL
Regarding B3, the binding result in data set [3] is “binds”.
